Results on two molecules are retold here after patent publication US20210403565A1 (BIOATLA, published 2021).

Assay [1] concerns the target T1, recombinant human CTLA4 extracellular domain (human, UniProt P16410 36-161).
T1 construct: extracellular domain; also called huCTLA-4
T1 sequence (looked up): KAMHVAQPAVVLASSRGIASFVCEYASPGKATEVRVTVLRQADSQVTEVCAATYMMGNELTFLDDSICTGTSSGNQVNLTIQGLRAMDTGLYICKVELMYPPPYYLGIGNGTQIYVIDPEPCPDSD
The assay can be described thus: ELISA, wells coated with human CTLA4, assay pH 6.0; lot 6978 in Glu buffer, T0; unit from the axis Log[ng/mL]. As to the method:
(§1) Both ELISA and FACS analysis were used to measure the binding activity. […] The amount of bound antibodies was quantified using anti-human IgG antibody conjugated to HRP. The absorbance at 450 nm in each measurement was proportional to the amount of antibodies bound. […] EC50 value (in ng/mL) for binding to human CTLA4 was determined by absorbance at 450 nm against antibody concentration with Prism variable slope of four-parameter dose-response curve, which was calculated using the nonlinear fit (variable slope, four parameters) model built into GraphPad Prism software (version 7.03). The buffers tested included His buffer (His), Tris buffer (Tris), Glutamine buffer (Glu) and no buffer.

The target in assay [2] is T2, human CTLA4 expressed on the cell surface of CHO cells (human, UniProt P16410 36-223).
T2 construct: whole, on cells; also called CHO-huCTLA4; huCTLA4
T2 sequence (looked up): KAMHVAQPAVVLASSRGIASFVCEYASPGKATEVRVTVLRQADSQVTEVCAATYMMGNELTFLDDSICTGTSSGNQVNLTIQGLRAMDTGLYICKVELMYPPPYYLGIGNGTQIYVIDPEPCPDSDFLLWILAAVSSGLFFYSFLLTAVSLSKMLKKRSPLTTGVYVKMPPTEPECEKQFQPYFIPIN
Kind of assay: FACS, cells expressing human CTLA4, assay pH 6.0, MFI; lot 6978 in Tris buffer, T0; unit from the axis Log[ng/mL]. On the procedure: (§2) The amount of bound antibodies was quantified using anti-human IgG antibody conjugated to fluorophores. The MFI in each reaction was proportional to the amount of antibodies bound. The EC₅₀ value (in ng/mL) for binding to human CTLA4 on cells was determined by MFI of the singlets population against antibody concentration with a Prism variable slope of four-parameter dose-response curve, which was calculated using the nonlinear fit (variable slope, four parameters) model built into GraphPad Prism software (version 7.03).

Assay [3] has as its target T2, human CTLA4 expressed on the cell …. The assay can be described thus: FACS, cells expressing human CTLA4, assay pH 7.4, MFI; lot 6978 in His buffer, T0; unit from the axis Log[ng/mL]. As to the method: as §2
The target is the same in assay [4]. The assay can be described thus: FACS, cells expressing human CTLA4, assay pH 6.0, MFI; lot 6978 in His buffer, T2W; unit from the axis Log[ng/mL]. As to the method:
as §2

Assay [5] has the same target. The assay can be described thus: FACS, cells expressing human CTLA4, assay pH 7.4, MFI; lot 6978 in Tris buffer, T0; unit from the axis Log[ng/mL]. As to the method: as §2
The target of assay [6] is T1, recombinant human CTLA4 extracellular …. The assay can be described thus: ELISA, wells coated with human CTLA4, assay pH 6.0; lot 6978 in Tris buffer, T0; unit from the axis Log[ng/mL]. On the procedure:
as §1

For assay [7], the target named is T2, human CTLA4 expressed on the cell …. The assay can be described thus: FACS, cells expressing human CTLA4, assay pH 7.4, MFI; lot 6972 in Glu buffer, T2W; unit from the axis Log[ng/mL]. As to the method: as §2
Assay [8] has as its target T1, recombinant human CTLA4 extracellular …. The assay can be described thus: ELISA, wells coated with human CTLA4, assay pH 7.4; lot 6972 in Tris buffer, T2W; unit from the axis Log[ng/mL]. As to the method: as §1
In assay [9] the target is T2, human CTLA4 expressed on the cell …. The assay can be described thus: FACS, cells expressing human CTLA4, assay pH 6.0, MFI; lot 6972 in Glu buffer, T0; unit from the axis Log[ng/mL]. As to the method:
as §2

The target is the same in assay [10]. Kind of assay: FACS saturation, CHO-huCTLA-4, pH 7.4, MFI, titration up to about log 6.5; no unit in the table, unit from the axis Log Antibodies [ng/ml]. As to the method:
The amount of antibodies bound on the cells was quantified using anti-human IgG antibody conjugated to fluorophores. EC₅₀ values at pH 6.0 and 7.4 for binding to cells were calculated using the nonlinear fit (variable slope, four parameters) model built into GraphPad Prism software (version 7.03). The expression levels of human CTLA4 or cynomolgus CTLA4 on the surface of the CHO cells were determined using a BD QuantiBRITE™ PE kit.
Finally, saturations of the antibodies on the CHO cells expressing human or cynomolgus CTLA4 at pH 7.4 were also measured by FACS (FIGS. 8A-8B).

In assay [11] the target is T1, recombinant human CTLA4 extracellular …. The assay can be described thus: ELISA, wells coated with human CTLA4, assay pH 6.0; lot 6972 in Tris buffer, T2W; unit from the axis Log[ng/mL]. On the procedure: as §1
Assay [12] shares this target. Kind of assay: ELISA, wells coated with human CTLA4, assay pH 7.4; lot 6972 in Tris buffer, T0; unit from the axis Log[ng/mL]. As to the method: as §1
The target is the same in assay [13]. The assay can be described thus: ELISA, immobilised huCTLA-4, table head pH 7.0 (text: pH 7.4), Jun. 27, 2017.

B1: BA-087-08-32 (antibody, V domains shown)
VH: EVQLVQSGAEVKKPGATVKISCKVSGFTFSHYTMHWIRQSPSRGLEWLGFISYDGNYKYYADSVKGRFTISRDNAKNSLYLQMNSLRAEDTAVYYCARTGWLGPFDYWGQGTLVTVSS
VL: EIVMTQSPATLSVSPGERATLSCRASQSVGSSYLAWYQQKPGKAPKLLIYGAFSRATGVPSRFSGSGSGTDFTLTISSLQPEDFATYYCQQDGSSPWTFGQGTKVEIK
notes: Detected with anti-human IgG and a molecular weight of 146 kDa was used in SPR, so it was tested as a whole IgG; also called BA-087-08-032; BA-087-08-32 (# 6978)
For B1, the EC50 in assay [1] is 0.0337 µg/mL; in assay [2], 0.152 µg/mL; in [3], 0.849 µg/mL; in assay [4] it was 0.145 µg/mL; in assay [5], 1.26 µg/mL; in assay [6], 0.0171 µg/mL.

B2: BA-087-05-19 (antibody, V domains shown)
VH: EVQLVESGGGLVQPGGSLRLSCAASGFTFSHYTMHWVRQAPGKGLEWVSFISYDGNNKYYADSVKGRFTISRDNSKNTLYLQMNSLRAEDTAVYYCARTGWLGPFDYWGQGTLVTVSS
VL: AIQLTQSPSSLSASVGDRVTITCRASQYVGSSYLAWYLQKPGQSPQLLIYGAFSRATGIPARFSGSGSGTEFTLTISSLQSEDFAVYYCQQDGSSPWTFGQGTKVEIK
notes: Detected with anti-human IgG and a molecular weight of 146 kDa was used in SPR, so it was tested as a whole IgG; also called BA-087-05-019; BA-087-05-19 (# 6972)
As for B2, the EC50 in assay [7] amounted to 0.607 µg/mL; in assay [8], 0.0365 µg/mL; in [9] it was 0.291 µg/mL; in [10] it was 0.846 µg/mL; in assay [11] it was 0.0101 µg/mL; in assay [12] it was 0.0424 µg/mL. Also, in [13], the EC50 is 0.0358 µg/mL.
